B1: Receptor tyrosine-protein kinase erbB-4 (Homo sapiens), Q15303 (parent)
chain: MKPATGLWVWVSLLVAAGTVQPSDSQSVCAGTENKLSSLSDLEQQYRALRKYYENCEVVMGNLEITSIEHNRDLSFLRSVREVTGYVLVALNQFRYLPLENLRIIRGTKLYEDRYALAIFLNYRKDGNFGLQELGLKNLTEILNGGVYVDQNKFLCYADTIHWQDIVRNPWPSNLTLVSTNGSSGCGRCHKSCTGRCWGPTENHCQTLTRTVCAEQCDGRCYGPYVSDCCHRECAGGCSGPKDTDCFACMNFNDSGACVTQCPQTFVYNPTTFQLEHNFNAKYTYGAFCVKKCPHNFVVDSSSCVRACPSSKMEVEENGIKMCKPCTDICPKACDGIGTGSLMSAQTVDSSNIDKFINCTKINGNLIFLVTGIHGDPYNAIEAIDPEKLNVFRTVREITGFLNIQSWPPNMTDFSVFSNLVTIGGRVLYSGLSLLILKQQGITSLQFQSLKEISAGNIYITDNSNLCYYHTINWTTLFSTINQRIVIRDNRKAENCTAEGMVCNHLCSSDGCWGPGPDQCLSCRRFSRGRICIESCNLYDGEFREFENGSICVECDPQCEKMEDGLLTCHGPGPDNCTKCSHFKDGPNCVEKCPDGLQGANSFIFKYADPDRECHPCHPNCTQGCNGPTSHDCIYYPWTGHSTLPQHARTPLIAAGVIGGLFILVIVGLTFAVYVRRKSIKKKRALRRFLETELVEPLTPSGTAPNQAQLRILKETELKRVKVLGSGAFGTVYKGIWVPEGETVKIPVAIKILNETTGPKANVEFMDEALIMASMDHPHLVRLLGVCLSPTIQLVTQLMPHGCLLEYVHEHKDNIGSQLLLNWCVQIAKGMMYLEERRLVHRDLAARNVLVKSPNHVKITDFGLARLLEGDEKEYNADGGKMPIKWMALECIHYRKFTHQSDVWSYGVTIWELMTFGGKPYDGIPTREIPDLLEKGERLPQPPICTIDVYMVMVKCWMIDADSRPKFKELAAEFSRMARDPQRYLVIQGDDRMKLPSPNDSKFFQNLLDEEDLEDMMDAEEYLVPQAFNIPPPIYTSRARIDSNRSEIGHSPPPAYTPMSGNQFVYRDGGFAAEQGVSVPYRAPTSTIPEAPVAQGATAEIFDDSCCNGTLRKPVAPHVQEDSSTQRYSADPTVFAPERSPRGELDEEGYMTPMRDKPKQEYLNPVEENPFVSRRKNGDLQALDNPEYHNASNGPPKAEDEYVNEPLYLNTFANTLGKAEYLKNNILSMPEKAKKAFDNPDYWNHSLPPRSTLQHPDYLQEYSTKYFYKQNGRIRPIVAENPEYLSEFSLKPGTVLPPPPYRHRNTVV
partner: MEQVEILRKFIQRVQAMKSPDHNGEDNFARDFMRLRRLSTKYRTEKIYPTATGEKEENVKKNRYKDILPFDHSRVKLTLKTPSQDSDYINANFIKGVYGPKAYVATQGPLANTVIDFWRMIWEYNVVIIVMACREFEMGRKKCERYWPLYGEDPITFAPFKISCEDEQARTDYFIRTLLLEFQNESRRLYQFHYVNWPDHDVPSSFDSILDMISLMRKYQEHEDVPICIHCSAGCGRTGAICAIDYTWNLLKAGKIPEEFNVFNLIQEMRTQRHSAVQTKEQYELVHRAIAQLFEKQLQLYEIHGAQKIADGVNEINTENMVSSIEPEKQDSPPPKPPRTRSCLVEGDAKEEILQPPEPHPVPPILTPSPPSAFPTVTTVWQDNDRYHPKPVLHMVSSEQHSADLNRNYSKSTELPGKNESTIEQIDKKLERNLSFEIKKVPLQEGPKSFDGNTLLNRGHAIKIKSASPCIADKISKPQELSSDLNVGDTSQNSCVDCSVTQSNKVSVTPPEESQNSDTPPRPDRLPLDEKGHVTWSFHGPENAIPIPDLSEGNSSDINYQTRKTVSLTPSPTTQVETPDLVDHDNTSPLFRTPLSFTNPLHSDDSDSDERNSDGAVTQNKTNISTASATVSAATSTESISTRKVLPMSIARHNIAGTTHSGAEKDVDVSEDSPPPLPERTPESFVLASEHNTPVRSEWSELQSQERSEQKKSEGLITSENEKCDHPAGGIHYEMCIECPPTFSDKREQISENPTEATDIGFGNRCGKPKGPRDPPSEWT
B2: Receptor tyrosine-protein kinase erbB-4 (Homo sapiens), Q15303 (parent)
chain: B1 chain
B3: Receptor tyrosine-protein kinase erbB-4 (Homo sapiens), Q15303 (parent)
chain: B1 chain
partner: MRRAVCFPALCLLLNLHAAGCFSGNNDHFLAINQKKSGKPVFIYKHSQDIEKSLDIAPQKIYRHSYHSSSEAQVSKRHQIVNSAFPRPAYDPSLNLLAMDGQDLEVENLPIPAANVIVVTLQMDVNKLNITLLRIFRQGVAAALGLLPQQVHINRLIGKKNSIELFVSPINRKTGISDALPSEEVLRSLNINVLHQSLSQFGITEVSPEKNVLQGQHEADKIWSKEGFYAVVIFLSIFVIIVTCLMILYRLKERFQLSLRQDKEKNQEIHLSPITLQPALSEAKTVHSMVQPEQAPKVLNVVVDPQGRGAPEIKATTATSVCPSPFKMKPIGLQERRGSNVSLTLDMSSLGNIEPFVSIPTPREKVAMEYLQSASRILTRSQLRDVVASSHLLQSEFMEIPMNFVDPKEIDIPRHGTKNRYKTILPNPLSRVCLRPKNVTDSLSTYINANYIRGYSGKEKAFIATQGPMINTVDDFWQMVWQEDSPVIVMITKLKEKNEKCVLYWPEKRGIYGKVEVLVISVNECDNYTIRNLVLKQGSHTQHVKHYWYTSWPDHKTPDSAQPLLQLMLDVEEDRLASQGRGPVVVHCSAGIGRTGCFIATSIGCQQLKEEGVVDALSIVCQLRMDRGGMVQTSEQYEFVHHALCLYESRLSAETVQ
B4: Tyrosine-protein phosphatase non-receptor type 7 (Homo sapiens), P35236 (parent)
chain: MVQAHGGRSRAQPLTLSLGAAMTQPPPEKTPAKKHVRLQERRGSNVALMLDVRSLGAVEPICSVNTPREVTLHFLRTAGHPLTRWALQRQPPSPKQLEEEFLKIPSNFVSPEDLDIPGHASKDRYKTILPNPQSRVCLGRAQSQEDGDYINANYIRGYDGKEKVYIATQGPMPNTVSDFWEMVWQEEVSLIVMLTQLREGKEKCVHYWPTEEETYGPFQIRIQDMKECPEYTVRQLTIQYQEERRSVKHILFSAWPDHQTPESAGPLLRLVAEVEESPETAAHPGPIVVHCSAGIGRTGCFIATRIGCQQLKARGEVDILGIVCQLRLDRGGMIQTAEQYQFLHHTLALYAGQLPEEPSP
B5: Receptor-type tyrosine-protein phosphatase R (Homo sapiens), Q15256 (parent)
chain: B3 partner

Variants of: B1
Conditions: with ptn12_human PTPN12, Q05209

| effect of a mutation on the interaction | Variant |
| --- | --- |
| with no effect | D843N |

Variants of: B1
Conditions: with ptn12_human PTPN12, Q05209
Remark: another data set of the same source

| effect of a mutation on the interaction | Variant |
| --- | --- |
| increasing interaction | D843N |

Variants of: B2
Conditions: with ptn6_human PTPN6, P29350
ptn6_human PTPN6, P29350, sequence (P29350 whole entry): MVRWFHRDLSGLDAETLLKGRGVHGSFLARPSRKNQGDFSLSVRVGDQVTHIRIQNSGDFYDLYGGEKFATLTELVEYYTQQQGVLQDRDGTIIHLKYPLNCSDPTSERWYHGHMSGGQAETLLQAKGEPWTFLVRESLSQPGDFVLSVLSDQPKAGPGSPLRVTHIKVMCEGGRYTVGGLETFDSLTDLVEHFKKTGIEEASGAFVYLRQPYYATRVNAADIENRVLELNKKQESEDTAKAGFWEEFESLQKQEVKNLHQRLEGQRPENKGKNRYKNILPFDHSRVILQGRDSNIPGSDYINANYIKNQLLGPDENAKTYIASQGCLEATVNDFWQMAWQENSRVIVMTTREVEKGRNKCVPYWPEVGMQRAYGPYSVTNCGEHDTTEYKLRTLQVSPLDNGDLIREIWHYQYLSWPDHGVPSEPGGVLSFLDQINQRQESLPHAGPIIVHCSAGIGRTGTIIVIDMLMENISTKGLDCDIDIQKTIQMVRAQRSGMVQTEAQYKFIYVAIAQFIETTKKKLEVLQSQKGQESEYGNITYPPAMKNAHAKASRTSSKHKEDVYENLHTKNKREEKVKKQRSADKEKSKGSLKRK

| effect of a mutation on the interaction | Variant |
| --- | --- |
| with no effect | D843N |

Variants of: B3
Conditions: with ptprr_human PTPRR, Q15256

| effect of a mutation on the interaction | Variant |
| --- | --- |
| with no effect | D843N |

Variants of: B4
Conditions: with erbb4_human ERBB4, Q15303

| effect of a mutation on the interaction | Variant |
| --- | --- |
| with no effect | MVQAHGGRSRAQPLTLSLGAAMTQPPPEKTPAKKHVRLQERRGSNVALMLDVRSLGAVEPICSVNTPREVTLHFLRTAGHPLTRWALQRQPPSPKQLEEEFLKIPSNFVSPEDLDIPGHASKDRYKTILPNPQSRVCLGRAQSQEDGDYINANYIRGYDGKEKVYIATQGPMPNTVSDFWEMVWQEEVSLIVMLTQLREGKEKCVHYWPTEEETYGPFQIRIQDMKECPEYTVRQLTIQYQEERRSVKHILFSAWPAHQTPESAGPLLRLVAEVEESPETAAHPGPIVVHSSAGIGRTGCFIATRIGCQQLKARGEVDILGIVCQLRLDRGGMIQTAEQYQFLHHTLALYAGQLPEEPSP [D257A;C291S] |
| with no effect | MVQAHGGRSRAQPLTLSLGAAMTQPPPEKTPAKKHVRLQERRGSNVALMLDVRSLGAVEPICSVNTPREVTLHFLRTAGHPLTRWALQRQPPSPKQLEEEFLKIPSNFVSPEDLDIPGHASKDRYKTILPNPQSRVCLGRAQSQEDGDYINANYIRGYDGKEKVYIATQGPMPNTVSDFWEMVWQEEVSLIVMLTQLREGKEKCVHYWPTEEETYGPFQIRIQDMKECPEYTVRQLTIQYQEERRSVKHILFSAWPDHQTPESAGPLLRLVAEVEESPETAAHPGPIVVHSSAGIGRTGCFIATRIGCQQLKARGEVDILGIVCQLRLDRGGMIQTAEQYQFLHHTLALYAGQLPEEPSP [C291S] |

Variants of: B4
Conditions: with igf1r_human IGF1R
Target sequence in this assay (P08069 whole entry, looked up): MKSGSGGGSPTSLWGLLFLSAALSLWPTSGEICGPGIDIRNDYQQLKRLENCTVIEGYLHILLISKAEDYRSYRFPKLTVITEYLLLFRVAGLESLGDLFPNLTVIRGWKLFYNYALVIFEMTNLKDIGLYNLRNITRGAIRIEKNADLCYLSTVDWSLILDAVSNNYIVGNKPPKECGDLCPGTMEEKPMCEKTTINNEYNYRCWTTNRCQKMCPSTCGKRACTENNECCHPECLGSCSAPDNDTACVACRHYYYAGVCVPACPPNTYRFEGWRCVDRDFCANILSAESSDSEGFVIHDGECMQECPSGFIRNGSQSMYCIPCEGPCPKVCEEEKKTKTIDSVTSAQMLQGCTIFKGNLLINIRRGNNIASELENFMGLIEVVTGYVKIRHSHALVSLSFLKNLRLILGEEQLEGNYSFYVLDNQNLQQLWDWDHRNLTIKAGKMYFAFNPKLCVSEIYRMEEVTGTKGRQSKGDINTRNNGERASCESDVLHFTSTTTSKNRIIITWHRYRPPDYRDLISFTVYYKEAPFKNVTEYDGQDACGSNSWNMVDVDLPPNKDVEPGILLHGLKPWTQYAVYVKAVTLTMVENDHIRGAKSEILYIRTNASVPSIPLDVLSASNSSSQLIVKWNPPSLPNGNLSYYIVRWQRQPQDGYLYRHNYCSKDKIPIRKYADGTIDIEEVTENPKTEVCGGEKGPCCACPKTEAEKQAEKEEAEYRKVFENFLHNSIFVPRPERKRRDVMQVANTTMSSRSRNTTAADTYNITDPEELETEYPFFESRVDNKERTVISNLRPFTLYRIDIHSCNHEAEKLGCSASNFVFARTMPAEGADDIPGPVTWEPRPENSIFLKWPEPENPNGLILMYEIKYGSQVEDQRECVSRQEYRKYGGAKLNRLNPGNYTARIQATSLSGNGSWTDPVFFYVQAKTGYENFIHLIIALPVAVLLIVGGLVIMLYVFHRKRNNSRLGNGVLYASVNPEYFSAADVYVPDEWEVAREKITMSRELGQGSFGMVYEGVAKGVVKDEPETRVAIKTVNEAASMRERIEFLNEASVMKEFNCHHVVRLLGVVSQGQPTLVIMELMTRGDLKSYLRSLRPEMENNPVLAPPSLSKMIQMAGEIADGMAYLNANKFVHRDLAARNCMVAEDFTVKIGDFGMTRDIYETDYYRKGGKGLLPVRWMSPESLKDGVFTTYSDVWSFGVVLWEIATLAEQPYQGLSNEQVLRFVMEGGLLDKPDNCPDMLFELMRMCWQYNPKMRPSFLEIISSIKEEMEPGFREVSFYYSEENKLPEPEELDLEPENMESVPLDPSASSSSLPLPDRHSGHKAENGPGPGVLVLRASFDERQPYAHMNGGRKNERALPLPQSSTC

| effect of a mutation on the interaction | Variant |
| --- | --- |
| with no effect | MVQAHGGRSRAQPLTLSLGAAMTQPPPEKTPAKKHVRLQERRGSNVALMLDVRSLGAVEPICSVNTPREVTLHFLRTAGHPLTRWALQRQPPSPKQLEEEFLKIPSNFVSPEDLDIPGHASKDRYKTILPNPQSRVCLGRAQSQEDGDYINANYIRGYDGKEKVYIATQGPMPNTVSDFWEMVWQEEVSLIVMLTQLREGKEKCVHYWPTEEETYGPFQIRIQDMKECPEYTVRQLTIQYQEERRSVKHILFSAWPAHQTPESAGPLLRLVAEVEESPETAAHPGPIVVHSSAGIGRTGCFIATRIGCQQLKARGEVDILGIVCQLRLDRGGMIQTAEQYQFLHHTLALYAGQLPEEPSP [D257A;C291S] |
| with no effect | MVQAHGGRSRAQPLTLSLGAAMTQPPPEKTPAKKHVRLQERRGSNVALMLDVRSLGAVEPICSVNTPREVTLHFLRTAGHPLTRWALQRQPPSPKQLEEEFLKIPSNFVSPEDLDIPGHASKDRYKTILPNPQSRVCLGRAQSQEDGDYINANYIRGYDGKEKVYIATQGPMPNTVSDFWEMVWQEEVSLIVMLTQLREGKEKCVHYWPTEEETYGPFQIRIQDMKECPEYTVRQLTIQYQEERRSVKHILFSAWPDHQTPESAGPLLRLVAEVEESPETAAHPGPIVVHSSAGIGRTGCFIATRIGCQQLKARGEVDILGIVCQLRLDRGGMIQTAEQYQFLHHTLALYAGQLPEEPSP [C291S] |

Variants of: B4
Conditions: with igf1r_human IGF1R
Remark: another data set of the same source
Target sequence in this assay (P08069 whole entry, looked up): as the sequence (P08069 whole entry, looked up) above

| effect of a mutation on the interaction | Variant |
| --- | --- |
| increasing interaction | MVQAHGGRSRAQPLTLSLGAAMTQPPPEKTPAKKHVRLQERRGSNVALMLDVRSLGAVEPICSVNTPREVTLHFLRTAGHPLTRWALQRQPPSPKQLEEEFLKIPSNFVSPEDLDIPGHASKDRYKTILPNPQSRVCLGRAQSQEDGDYINANYIRGYDGKEKVYIATQGPMPNTVSDFWEMVWQEEVSLIVMLTQLREGKEKCVHYWPTEEETYGPFQIRIQDMKECPEYTVRQLTIQYQEERRSVKHILFSAWPAHQTPESAGPLLRLVAEVEESPETAAHPGPIVVHSSAGIGRTGCFIATRIGCQQLKARGEVDILGIVCQLRLDRGGMIQTAEQYQFLHHTLALYAGQLPEEPSP [D257A;C291S] |
| disrupting interaction | MVQAHGGRSRAQPLTLSLGAAMTQPPPEKTPAKKHVRLQERRGSNVALMLDVRSLGAVEPICSVNTPREVTLHFLRTAGHPLTRWALQRQPPSPKQLEEEFLKIPSNFVSPEDLDIPGHASKDRYKTILPNPQSRVCLGRAQSQEDGDYINANYIRGYDGKEKVYIATQGPMPNTVSDFWEMVWQEEVSLIVMLTQLREGKEKCVHYWPTEEETYGPFQIRIQDMKECPEYTVRQLTIQYQEERRSVKHILFSAWPDHQTPESAGPLLRLVAEVEESPETAAHPGPIVVHSSAGIGRTGCFIATRIGCQQLKARGEVDILGIVCQLRLDRGGMIQTAEQYQFLHHTLALYAGQLPEEPSP [C291S] |

Variants of: B5
Conditions: with ret_human RET

| effect of a mutation on the interaction | Variant |
| --- | --- |
| increasing interaction | Y249F |
| disrupting interaction | C588S |
| disrupting interaction | Y249F;D554A;C588S |

Variants of: B5
Conditions: with ron_mouse Mst1r, Q62190

| effect of a mutation on the interaction | Variant |
| --- | --- |
| increasing interaction | Y249F |
| disrupting interaction | C588S |

Variants of: B5
Conditions: with erbb4_human ERBB4, Q15303

| effect of a mutation on the interaction | Variant |
| --- | --- |
| with no effect | C588S |

Variants of: B5
Conditions: with ret_human RET
Remark: another data set of the same source

| effect of a mutation on the interaction | Variant |
| --- | --- |
| with no effect | C588S |

Variants of: B5
Conditions: with igf1r_human IGF1R
Target sequence in this assay (P08069 whole entry, looked up): as the sequence (P08069 whole entry, looked up) above

| effect of a mutation on the interaction | Variant |
| --- | --- |
| decreasing interaction | C588S |

Variants of: B5
Conditions: with ntrk1_human NTRK1, P04629
ntrk1_human NTRK1, P04629, sequence (P04629 whole entry, looked up): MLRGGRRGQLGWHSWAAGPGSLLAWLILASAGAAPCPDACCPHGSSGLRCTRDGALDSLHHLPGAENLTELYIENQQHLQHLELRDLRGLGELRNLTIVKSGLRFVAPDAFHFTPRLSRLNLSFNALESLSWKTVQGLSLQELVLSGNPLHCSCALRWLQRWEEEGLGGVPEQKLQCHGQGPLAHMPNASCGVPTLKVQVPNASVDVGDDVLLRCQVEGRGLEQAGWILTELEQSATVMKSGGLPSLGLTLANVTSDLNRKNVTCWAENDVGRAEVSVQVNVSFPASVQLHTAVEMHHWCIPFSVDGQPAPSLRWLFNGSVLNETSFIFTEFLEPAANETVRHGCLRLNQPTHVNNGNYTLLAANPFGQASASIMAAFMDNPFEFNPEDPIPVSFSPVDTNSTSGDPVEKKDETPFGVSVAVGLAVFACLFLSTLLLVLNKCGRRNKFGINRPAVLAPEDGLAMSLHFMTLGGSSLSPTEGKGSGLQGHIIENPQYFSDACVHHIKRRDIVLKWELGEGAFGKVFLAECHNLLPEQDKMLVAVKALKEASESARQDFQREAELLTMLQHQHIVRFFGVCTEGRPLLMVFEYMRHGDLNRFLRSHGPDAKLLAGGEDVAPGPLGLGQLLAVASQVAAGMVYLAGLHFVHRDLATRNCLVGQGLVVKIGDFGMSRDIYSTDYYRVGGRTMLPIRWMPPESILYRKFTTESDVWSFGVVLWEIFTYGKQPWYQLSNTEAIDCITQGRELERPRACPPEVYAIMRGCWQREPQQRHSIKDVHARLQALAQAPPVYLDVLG

| effect of a mutation on the interaction | Variant |
| --- | --- |
| with no effect | C588S |

Variants of: B5
Conditions: with tie2_human TEK

| effect of a mutation on the interaction | Variant |
| --- | --- |
| decreasing interaction | C588S |

Variants of: B5
Conditions: with ron_mouse Mst1r

| effect of a mutation on the interaction | Variant |
| --- | --- |
| increasing interaction | C588S |

Variants of: B5
Conditions: with fgfr2_human FGFR2, P21802
fgfr2_human FGFR2, P21802, sequence (P21802 whole entry, looked up): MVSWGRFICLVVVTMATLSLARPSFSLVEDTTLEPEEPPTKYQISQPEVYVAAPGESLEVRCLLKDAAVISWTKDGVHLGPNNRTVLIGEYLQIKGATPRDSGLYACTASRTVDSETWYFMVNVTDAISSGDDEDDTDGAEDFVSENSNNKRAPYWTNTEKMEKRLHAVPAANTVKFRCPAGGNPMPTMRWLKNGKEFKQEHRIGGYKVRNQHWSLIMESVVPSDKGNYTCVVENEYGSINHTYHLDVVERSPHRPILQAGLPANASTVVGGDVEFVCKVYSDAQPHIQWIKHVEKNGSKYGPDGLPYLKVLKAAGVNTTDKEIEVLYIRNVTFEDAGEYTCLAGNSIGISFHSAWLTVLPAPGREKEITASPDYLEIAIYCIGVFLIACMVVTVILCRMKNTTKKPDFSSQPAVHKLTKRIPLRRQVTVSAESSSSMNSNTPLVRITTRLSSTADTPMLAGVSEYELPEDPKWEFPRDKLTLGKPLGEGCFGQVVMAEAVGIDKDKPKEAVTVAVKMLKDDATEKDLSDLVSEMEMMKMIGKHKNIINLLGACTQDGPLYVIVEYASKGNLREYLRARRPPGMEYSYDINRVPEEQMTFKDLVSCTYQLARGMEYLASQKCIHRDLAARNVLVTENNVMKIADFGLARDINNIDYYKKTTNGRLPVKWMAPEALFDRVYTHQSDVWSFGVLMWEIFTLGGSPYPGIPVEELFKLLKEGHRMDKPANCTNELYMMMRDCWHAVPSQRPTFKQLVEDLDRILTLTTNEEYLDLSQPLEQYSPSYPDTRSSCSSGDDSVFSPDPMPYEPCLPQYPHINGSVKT

| effect of a mutation on the interaction | Variant |
| --- | --- |
| disrupting interaction | C588S |

Variants of: B5
Conditions: with fgfr4_human FGFR4, P22455
fgfr4_human FGFR4, P22455, sequence (P22455 whole entry, looked up): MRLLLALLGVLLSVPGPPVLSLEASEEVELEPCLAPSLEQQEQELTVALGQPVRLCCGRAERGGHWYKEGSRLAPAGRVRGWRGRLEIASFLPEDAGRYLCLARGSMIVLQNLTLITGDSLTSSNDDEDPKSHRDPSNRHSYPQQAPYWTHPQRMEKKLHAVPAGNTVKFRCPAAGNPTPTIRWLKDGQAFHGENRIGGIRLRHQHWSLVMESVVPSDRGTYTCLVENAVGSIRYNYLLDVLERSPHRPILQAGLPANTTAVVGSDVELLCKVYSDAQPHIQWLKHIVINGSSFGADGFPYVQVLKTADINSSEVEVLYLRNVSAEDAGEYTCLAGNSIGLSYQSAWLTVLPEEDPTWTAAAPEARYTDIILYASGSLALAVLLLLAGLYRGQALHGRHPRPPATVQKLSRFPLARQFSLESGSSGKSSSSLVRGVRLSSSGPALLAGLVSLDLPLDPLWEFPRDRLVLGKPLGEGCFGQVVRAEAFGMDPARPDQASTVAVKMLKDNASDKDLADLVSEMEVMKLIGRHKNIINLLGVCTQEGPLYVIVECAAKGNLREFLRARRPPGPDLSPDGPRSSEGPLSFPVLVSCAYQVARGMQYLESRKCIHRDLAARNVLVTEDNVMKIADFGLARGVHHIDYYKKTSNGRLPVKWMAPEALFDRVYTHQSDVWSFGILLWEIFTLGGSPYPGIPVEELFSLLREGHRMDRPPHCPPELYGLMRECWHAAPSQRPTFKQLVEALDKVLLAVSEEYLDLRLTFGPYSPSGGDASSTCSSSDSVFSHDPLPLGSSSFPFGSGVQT

| effect of a mutation on the interaction | Variant |
| --- | --- |
| decreasing interaction | C588S |

Variants of: B5
Conditions: with vgfr2_human KDR

| effect of a mutation on the interaction | Variant |
| --- | --- |
| with no effect | C588S |

Variants of: B5
Conditions: with igf1r_human IGF1R
Remark: another data set of the same source
Target sequence in this assay (P08069 whole entry, looked up): as the sequence (P08069 whole entry, looked up) above

| effect of a mutation on the interaction | Variant |
| --- | --- |
| with no effect | C588S |

Source: IntAct's records for PubMed 28065597
